From the RNAGym collection of RNA variant scans (doi:10.7554/elife.90254)

B1: LINE1-full (parent)
chain: UACGUAGGUGGUUUUCCCCUGAUAGUGCUAAGGGGGCCUGGAAGUUUGGACUGGGCAGAGCUCAACACAGCGUGGCAAAGUGGCUGUGGCUAGACUGCCUCUCUGGAUUCCUCGUCACUCAGCAGGGCAUCUCUGAGAGAAAUGCC

Variants of: B1
Test: self-cleavage, relative activity (ratio to wild type); higher = more cleavage; in vitro, sequencing; the parent is a self-cleaving ribozyme

Variant | self-cleavage
UACGCAGGUGGUUUUCCCCUGAUAGUGCUAAGGGGGCCUGGAAGUUUGGACUGGGCAGAGCUCAACACAGCGUGGCAAAGUGGCUGUGGCUAGACUGCCUCUCUGGAUUCCUCGUCACUCAGCAGGGCAUCCCUGAGAGAAAUGCC | 0.86
UACGCAGGUGGUUUUCCCCUGAUAGGGCUAAGGGGGCCUGGAAGUUUGGACUGGGCAGAGCUCAACACAGCGUGGCAAAGUGGCUGUGGCUAGACUGCCUCUCUGGAUUCCUCGUCACUCAGCAGGGCAUCUCUGAGAGAAAUGCC | 0.47
UACGCAGGUGGUUUUCCCCUGAUAGUGCUAAGGGGGCCUGGAAGUUUGGACUGGGCAGAGCUCAACACAGCGUGGCAAAGUGGCAGUGGCUAGACUGCCUCUCUGGAUUCCUCGUCACUCAGCAGGGCAUCUCUGAGAGAAAUGCC | 0.21
UACGCAGGUGGUUUUCCCCUGAUAGUGCUAAGGGGGCCUGGAAGUUUGGACUGGGCAGAGCUCAACACAGCGUGGCAAAGUGGCCGUGGCUAGACUGCCUCUCUGGAUUCCUCGUCACUCAGCAGGGCAUCUCUGAGAGAAAUGCC | 0.27
UACGCAGGUGGUUUCCCCCUGAUAGUGCUAAGGGGGCCUGGAAGUUUGGACUGGGCAGAGCUCAACACAGCGUGGCAAAGUGGCUGUGGCUAGACUGCCUCUCUGGAUUCCUCGUCACUCAGCAGGGCAUCUCUGAGAGAAAUGCC | 1
UACGGAGGUGGUUUUCCCCUGAUAGUGCUAAGGGGGCCUGGAAGUUUGGACUGGGCAGAGCUCAACACAGCGUGGCAAAGUGGCUGUGGCUAGACUGCCUCUCUGGAUUCCUCGUCACUCAGCAGGGCAUCUCUGAGAGACAUGCC | 0.56
UACGGAGGUGGUUUUCCCCUGAUAGUGCUAAGGGGGCCUGGAAGUUUGGACUGGGCAGAGCUCGACACAGCGUGGCAAAGUGGCUGUGGCUAGACUGCCUCUCUGGAUUCCUCGUCACUCAGCAGGGCAUCUCUGAGAGAAAUGCC | 0.23
UACGGAGGUGGUUUUCCCCUGAUAGUGCUAAGGGGGCCUGGAAGUUUGGACUGGGCAGAGCUCAACACAGCGUGGCAAAGUGGCUGUGGCUAGACUGCCUCUCUGGAUUCCUCGUCACUCAGCAGGGCAUCUCUGAGAGAAAUGCC | 0.76
UACGCAGGUGGUUUUCCCCUGAUAGUGCUAAGGGGGCCUGGAAGUUUGGACUGGGCAGAGCUCAACACAGCGUGGCAAAGUGGCUGUGGCUAGACUGCCUCUCUGGAUUCCUCGUCACACAGCAGGGCAUCUCUGAGAGAAAUGCC | 0.98
UACGGAGGUGGUUUUCCCCUGAUAGUGCUAAGGGGGCCUGGAAGUUUGGACUGGGCAGAGCUCAACACAGCGUGGCAAAGUGGCUGUGGCUAGACUGCCUCUCUGGAUUCCUCGUCACUCAGCUGGGCAUCUCUGAGAGAAAUGCC | 0.96
UACGCAGGUGGUUUUCCCCUGAUAGUGCUAAGGGGGCCUGGAAGUUUGGACUGGGCAGAGCUCAACACAGCGUGGCAAAGUGGCUGUGGCUAGACUGCCUCCCUGGAUUCCUCGUCACUCAGCAGGGCAUCUCUGAGAGAAAUGCC | 1
UACGCAGGUGGUUAUCCCCUGAUAGUGCUAAGGGGGCCUGGAAGUUUGGACUGGGCAGAGCUCAACACAGCGUGGCAAAGUGGCUGUGGCUAGACUGCCUCUCUGGAUUCCUCGUCACUCAGCAGGGCAUCUCUGAGAGAAAUGCC | 0.86
UACGGAGGUGGUUUUCCCCUGAUAGUGCUAAGGGGGCCUGGAAGUUUGGACUGGGCAGAGCUCAACACAGCGUGGCAAAGUGGCUGUGGCUAGACUGCCUCUCUGGGUUCCUCGUCACUCAGCAGGGCAUCUCUGAGAGAAAUGCC | 0.86
UACGCAGGUGGUUUUCCCCUGAUAGUGCUAAGGGGGCCUGGAAGUUUGGACUGGGCAGAGCUCAACACAGCGUGGCAAAGUGGCUGUGGCUAGACUGCCUCUCUGGACUCCUCGUCACUCAGCAGGGCAUCUCUGAGAGAAAUGCC | 1.57
UACGCAGGUGGUUUUCCCCUGAUAGUGCUAAGGGGGCCUGGAAGUUUGGACUGGGCAGAGCUCAACACAGCGUGGCAAAGUGGCUGUGGCUAGACUGCCUCUCUGGAGUCCUCGUCACUCAGCAGGGCAUCUCUGAGAGAAAUGCC | 1.88
UACGCAGGUGGUUUUCCCCUGAUAGUGCUAAGGGGGCCUGGAAGUUUGGACUGGGCAGAGCCCAACACAGCGUGGCAAAGUGGCUGUGGCUAGACUGCCUCUCUGGAUUCCUCGUCACUCAGCAGGGCAUCUCUGAGAGAAAUGCC | 0.07
UACGGAGGUGGUUUUCCCCUGAUAGUGCUAAGGGGGCCUGGAAGUUUGGACUGGGCAGAGCUCAACUCAGCGUGGCAAAGUGGCUGUGGCUAGACUGCCUCUCUGGAUUCCUCGUCACUCAGCAGGGCAUCUCUGAGAGAAAUGCC | 0.31
UACGCAGGUGGUUUUCCCCUGAUAGUGCUAAGGGGGCCUGGAAGUUUGGACUGGGCAGAGCUCAACACAGCGUGGCAAAGGGGCUGUGGCUAGACUGCCUCUCUGGAUUCCUCGUCACUCAGCAGGGCAUCUCUGAGAGAAAUGCC | 1.31
UACGCAGGUGGUUUUCCCCUGAUAGUGCUAAGGGGGCCUGGAAGUUUGGACUGGGCAGAGCUCAACACAGCGUGGCAAAGAGGCUGUGGCUAGACUGCCUCUCUGGAUUCCUCGUCACUCAGCAGGGCAUCUCUGAGAGAAAUGCC | 1.56
UACGCAGGUGGUUUUCCCCUGAUAGUGCUAAGGGGGCCUGGAAGUUUGGACUGGGCAGAGCUCAACACAGCGUGGCAAAGUGGCUGCGGCUAGACUGCCUCUCUGGAUUCCUCGUCACUCAGCAGGGCAUCUCUGAGAGAAAUGCC | 0.15

Variant | self-cleavage
UACGCAGGUGGUUUUCCCCAGAUAGUGCUAAGGGGGCCUGGAAGUUUGGACUGGGCAGAGCUCAACACAGCGUGGCAAAGUGGCUGUGGCUAGACUGCCUCUCUGGAUUCCUCGUCACUCAGCAGGGCAUCUCUGAGAGAAAUGCC | 0.84
UACGCAGGUGGUUUUCCCCCGAUAGUGCUAAGGGGGCCUGGAAGUUUGGACUGGGCAGAGCUCAACACAGCGUGGCAAAGUGGCUGUGGCUAGACUGCCUCUCUGGAUUCCUCGUCACUCAGCAGGGCAUCUCUGAGAGAAAUGCC | 1.09
UACGCAGGUGGUAUUCCCCUGAUAGUGCUAAGGGGGCCUGGAAGUUUGGACUGGGCAGAGCUCAACACAGCGUGGCAAAGUGGCUGUGGCUAGACUGCCUCUCUGGAUUCCUCGUCACUCAGCAGGGCAUCUCUGAGAGAAAUGCC | 1.67
UACGCAGGUGGUUUUCCCCUGAUAGUGCUAAGGGGGCCUGGAAGUUUGGACUGGGCAGAGCUCAACACAGCGUGGCAAAGUGGCUGUGGCUAGACUGCCCCUCUGGAUUCCUCGUCACUCAGCAGGGCAUCUCUGAGAGAAAUGCC | 1.52
UACGCAGGUGGUUUUCCCCUGAUAGUGCUAAGGGGGCCUGGAAGUUUGGACUGGGCAGAGCUCAACACAGCGUGGCAAAGUGGCUGUGGCUAGACUGCCUCUCUGGAUUCCUCGUCACUCAGCAGGGCACCUCUGAGAGAAAUGCC | 1.4
UACGCAGGUGGUUUUCCCCUGAUAGUGCUAAGGGGGCCUGGAAGUUUGGACUGGGCAGAGCUCAACACAGCGUGGCAAAGUGGCUGUGGCUAGACUGCCUCUCUGGAUUCCUCGACACUCAGCAGGGCAUCUCUGAGAGAAAUGCC | 0.91
UACGCAGGUGGUUUUCCCCUGAUAGUGCUAAGGGGGCCUGGAAGUUUGGACUGGGCAGAGCUCAACACAGCGUGGCAAAGUGGCUGUGGCUAGACUGCCUCUCUGGAUUCCUCGCCACUCAGCAGGGCAUCUCUGAGAGAAAUGCC | 1.27
UACGCAGGUGGUUUUCCCCUGAUAGUGCUAAGGGGGCCUGGAAGAUUGGACUGGGCAGAGCUCAACACAGCGUGGCAAAGUGGCUGUGGCUAGACUGCCUCUCUGGAUUCCUCGUCACUCAGCAGGGCAUCUCUGAGAGAAAUGCC | 0.74
UACGCAGGUGGUUUUCCCCUGAUAGUGCUAAGGGGGCCUGGAAGCUUGGACUGGGCAGAGCUCAACACAGCGUGGCAAAGUGGCUGUGGCUAGACUGCCUCUCUGGAUUCCUCGUCACUCAGCAGGGCAUCUCUGAGAGAAAUGCC | 1.32
UACGCAGGUGGUUUUCCCCUGAUAGUGCUAAGGGGGCCUGGAAGUCUGGACUGGGCAGAGCUCAACACAGCGUGGCAAAGUGGCUGUGGCUAGACUGCCUCUCUGGAUUCCUCGUCACUCAGCAGGGCAUCUCUGAGAGAAAUGCC | 0.99
UACGCAGGUGGUUUUCCCCUGAUAGUGCUAAGGGGGCCUGGAAGUUUGGACUGGGCAGAGCUCAACACAGCGUGGCAAAGUGGCUGUGGCUAGACUGCCUCUCUGGAUCCCUCGUCACUCAGCAGGGCAUCUCUGAGAGAAAUGCC | 0.91
UACGCAGGUGGUUUUCCCCUGAUAGUGCUAAGGGGGCCAGGAAGUUUGGACUGGGCAGAGCUCAACACAGCGUGGCAAAGUGGCUGUGGCUAGACUGCCUCUCUGGAUUCCUCGUCACUCAGCAGGGCAUCUCUGAGAGAAAUGCC | 0.91
UACGCAGGUGGUUUUCCCCUGAUAGUGCUAAGGGGGCCCGGAAGUUUGGACUGGGCAGAGCUCAACACAGCGUGGCAAAGUGGCUGUGGCUAGACUGCCUCUCUGGAUUCCUCGUCACUCAGCAGGGCAUCUCUGAGAGAAAUGCC | 1.05
UACGCAGGUGGUUUUCCCCUGAUAGUGCUAAGGGGGCCUGGAAGUUUGGACUGGGCAGAGCUCAACACAGCGUGGCAAAGUGGCUGUGGCCAGACUGCCUCUCUGGAUUCCUCGUCACUCAGCAGGGCAUCUCUGAGAGAAAUGCC | 0.48
UACGGAGGUGGCUUUCCCCUGAUAGUGCUAAGGGGGCCUGGAAGUUUGGACUGGGCAGAGCUCAACACAGCGUGGCAAAGUGGCUGUGGCUAGACUGCCUCUCUGGAUUCCUCGUCACUCAGCAGGGCAUCUCUGAGAGAAAUGCC | 0.77
UACGCAGGUGGUUUUCCCCUGAUAGUGCUAAGGGGGCCUGGAAGUUUGGACUGGGCAGAGCUCAACACAGCGCGGCAAAGUGGCUGUGGCUAGACUGCCUCUCUGGAUUCCUCGUCACUCAGCAGGGCAUCUCUGAGAGAAAUGCC | 1.16
UACGGAGGUGGUUUUCCCCUGAUAGUGCUAAGGGGGCCUGGAAGUUUGGACUGGGCAGAGCUCAACACAGCGUGGCAAAGUGGCUGUGGCUAGACUGCCUCUCUGGAUUCCUCGUCACUCGGCAGGGCAUCUCUGAGAGAAAUGCC | 0.84
UACGCAGGUGGUUUUCCCCUGAUAGUGCUAAGGGGGCCUGGAAGUUUGGACUGGGCAGAGCUCAACACAGCGUGGCAAAGUGGCUGUGGCUAGACUGCCUCUCAGGAUUCCUCGUCACUCAGCAGGGCAUCUCUGAGAGAAAUGCC | 1.28
UACGCAGGUGGUUUUCCCCUGAGAGUGCUAAGGGGGCCUGGAAGUUUGGACUGGGCAGAGCUCAACACAGCGUGGCAAAGUGGCUGUGGCUAGACUGCCUCUCUGGAUUCCUCGUCACUCAGCAGGGCAUCUCUGAGAGAAAUGCC | 1.53
